Measured values published in article doi:10.1101/2025.09.12.675771 (bioRxiv, 2025).

Experiments:
[1] = target: SARS-CoV-2 RBD (residues 332-527), BQ.1.1 variant (SARS-CoV-2, Omicron BQ.1.1, R346T | K444T | N460K)
[2] = target: SARS-CoV-2 RBD (residues 332-527), Lambda variant (SARS-CoV-2, Lambda (C.37), L452Q | F490S)

B1: R1-32-Q61E-WT (antibody, V domains shown)
VH: EVQLVQSGAEVKKPGSSVKVSCKASGGTFSSYFISWVRQAPGQGLEWMGGIIPILGIADYAEKFQGRVTITADKSTSTAYMELSSLRSEDTAVYYCARENGYSGYGAAYNFDLWGRGTLVTVSS
VL: QSVLTQPPSVSGAPGQRVTISCTGSDSNIGAGYDVHWYQQLPGTAPKLLIYGNSNRPSGVPDRFSGSKSGTSASLAITGLQAEDEADYYCQSYDSSLSGSVFGGGTKLTVL
- binding result [1]: binds
- binding result [2]: binds
